Test results from PMC9804225.

Columns and labels:
[1] = target: recombinantly expressed GFP Nb; experiment: BLI; Nbs immobilised by their C-terminal His-tag on Ni-NTA biosensor tips; untagged GFP as analyte at 1 nM to 100 nM
[2] = target: synthetic GFP Nb_(1–123)‐linker‐PA (5), folded; experiment: as above

untagged GFP (from UniProt P42212 1-238) (natural protein)
Kd [1]: 1.12 nM | Kd [2]: 1.11 nM
